# Source: patent publication US20250218531A1 (ABSCI, published 2025)
# Columns and labels:
# [1] = target: T1, SARS-COV2 Spike RBD, Beta (SARS-CoV-2, UniProt P0DTC2 319-541); assay: SPR; 'N/A indicates a lack of binding'
# T1 construct: domain: RBD
# [2] = target: T2, SARS-COV2 Spike RBD, Delta (SARS-CoV-2, UniProt P0DTC2 319-541); assay: SPR; 'N/A indicates a lack of binding'
# T2 construct: domain: RBD
binder,measurement,setting,value
"AI-Designed Binder (de novo casirivimab HCDR3 variant) (Fab, V domains shown, Fab format) VH: QVQLVESGGGLVKPGGSLRLSCAASGFTFSDYYMSWIRQAPGKGLEWVSYITYSGSTIYYADSVKGRFTISRDNAKSSLYLQMNSLRAEDTAVYYCARDWGQTWDSYFDYWGQGTLVTVSS VL: DIQMTQSPSSLSASVGDRVTITCQASQDITNYLNWYQQKPGKAPKLLIYAASNLETGVPSRFSGSGSGTDFTFTISGLQPEDIATYYCQQYDNLPLTFGGGTKVEIKR",binding result,[1],no binding
same,binding result,[2],no binding
